Consider two molecules from PMC5738438 (2017).

The term Kd denotes the free concentration of one partner at which half of the binding sites on the other are occupied at equilibrium, for simple one-to-one binding. A lower Kd goes with a tighter complex.

One experiment concerns the target H2A/H2B dimer (Xenopus, UniProt P06897 2-123; P02281 1-126).
For a further experiment, the target named is H3/H4 (Xenopus, UniProt P84233 21-136; P62799 17-103).

In the experiment with H2A/H2B dimer, DYSWAEEEDE [Npm tail peptide (residues 122–131)] displayed a Kd of 9.36 µM.

B1: Npm tail domain (residues 119–195) (domain or fragment)
chain: MEEDYSWAEEEDEGEEEEEEEEDPESPPKAVKRPAATKKAGQAKKKKLDKEDESSEEDSPTKKGKGAGRGRKPAAKK
On to B1, for which the Kd with H3/H4 is 1.11 µM; in the experiment with H2A/H2B dimer, 0.171 µM.
